According to publication PMC3520109 (mBio, 2012):
Values belong to the molecule of their own block, whether it stands above or below them.

How the values were obtained:
43A-c = details: read-out: apparent Km; 100 mM citrate pH 6, 1 g/liter BSA, 50°C
purified protein = substrate: O=[N+]([O-])c1ccc(O[C@@H]2O[C@H](CO)[C@@H](O)[C@H](O)[C@H]2O)cc1; assay: purified protein; details: 100 mM citrate pH 6, 1 g/liter BSA, 50°C

Km (43A-c): 600 µM
Molecule: O=[N+]([O-])c1ccc(O[C@@H]2OC[C@@H](O)[C@H](O)[C@H]2O)cc1 [pNPX]

B1: Bgl1C (Thermobifida fusca) (protein)
chain: TSQSTTPLGNLEETPKPDIRFPSDFVWGVATASFQIEGSTTADGRGPSIWDTFCATPGKVENGDTGDPACDHYNRYRDDVALMRELGVGAYRFSIAWPRIQPEGKGTPVEAGLDFYDRLVDCLLEAGIEPWPTLYHWDLPQALEDAGGWPNRDTAKRFADYAEIVYRRLGDRITNWNTLNEPWCSAFLGYASGVHAPGRQEPAAALAAAHHLMLGHGLAAAVMRDLAGQAGRSVRIGVAHNQTTVRPYTDSEADRDAARRIDALRNRIFTEPLVKGRYPEDLIEDVAAVTDYSFVQDGDLKTISANLDMMGVNFYNPSWVSGNRENGGSDRLPDEGYSPSVGSEHVVEVDPGLPVTAMGWPIDPTGLYDTLTRLANDYPGLPLYITENGAAFEDKVVDGAVHDTERIAYLDSHLRAAHAAIEAGVPLKGYFAWSFMDNFEWALGYGKRFGIVHVDYESQTRTVKDSGWWYSRVMRNGGIFGQE
Km (purified protein): 600 µM
kcat (purified protein): 2.08 s⁻¹
